Publication PMC12338573 (bioRxiv, 2025)

Molecular target: the molecule itself
Experiment: SEC-MALS

B1: hFcµ-tFcµ-chi3 with Cys414 mutated (domain or fragment)
chain: TAIRVFAIPPSFASIFLTKSTKLTCLVTDLTTYDSVTISWTRQNGEAVKTHTNISESHPNATFSAVGEASIAEDDWNSGERFTCTVTHTDLPSPLKQTISRPKGVALHRPDVYLLPPAREQLNLRESATITCLVTGFSPADVFVQWMQRGQPLSPEKYVTSAPMPEPQAPGRYFAHSILTVSEEEWNTGETYTCVVAHEALPNRVTERTVDRTSNQPNLVNLSLNVPQRCMAQ
- pentamer:monomer ratio: 14%
